In patent publication US20150299296A1 (Chugai, published 2015):
Blank lines part the entries; values can stand above or below the binder they belong to.

What was measured:
Assay in all cases: SPR; IL6R-BF648/IL6R-L=100
[1] = molecular target: T1, human FcγRIa extracellular domain with C-terminal His tag (human, UniProt P12314 16-292)
T1 construct: Whole entry named; also called FcgRIa; FcgIa
Protocol: (§1) IL6R-L was utilized as the common antibody L chain for all of the antibodies, the antibodies were expressed and purified according to the method of Reference Example 1, and binding to each of the FcγRs (FcγRIa, FcγRIIa type H, FcγRIIa type R, FcγRIIb, and FcγRIIIa type V) was comprehensively evaluated by the method of Reference Example 2.
(§2) Relative binding activities were calculated for the results of analyzing interactions with the respective FcγRs according to the following method.

[2] = molecular target: T2, human FcγRIIa type H extracellular domain with C-terminal His tag (human, UniProt P12318 34-217)
T2 construct: extracellular domain; also called FcgRIIaH; FcγRIIa H
T2 sequence (looked up): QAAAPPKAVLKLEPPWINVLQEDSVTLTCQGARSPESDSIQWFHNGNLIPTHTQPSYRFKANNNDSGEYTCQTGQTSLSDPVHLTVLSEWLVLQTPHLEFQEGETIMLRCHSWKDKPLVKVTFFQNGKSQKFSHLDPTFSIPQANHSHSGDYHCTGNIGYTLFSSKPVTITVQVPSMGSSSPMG
Protocol: as §1, §2

[3] = molecular target: T3, human FcγRIIIa type V extracellular domain with C-terminal His tag (human, UniProt P08637 17-208)
T3 construct: extracellular domain; also called FcgRIIIaV; FcγRIIIaV
T3 sequence (P08637 17-208 F176V): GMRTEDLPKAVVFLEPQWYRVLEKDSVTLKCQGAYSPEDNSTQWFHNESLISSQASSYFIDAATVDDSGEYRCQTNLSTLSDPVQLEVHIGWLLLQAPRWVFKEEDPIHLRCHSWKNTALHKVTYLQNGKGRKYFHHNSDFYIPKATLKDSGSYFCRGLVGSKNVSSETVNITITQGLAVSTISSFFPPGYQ
Protocol: as §1, §2

[4] = molecular target: T4, human FcγRIIb extracellular domain with C-terminal His tag (human, UniProt P31994 43-217)
T4 construct: extracellular domain; For crystals it was expressed with kifunensine and trimmed with Endo F1; also called FcgRIIb; FcγRIIb extracellular region
T4 sequence (looked up): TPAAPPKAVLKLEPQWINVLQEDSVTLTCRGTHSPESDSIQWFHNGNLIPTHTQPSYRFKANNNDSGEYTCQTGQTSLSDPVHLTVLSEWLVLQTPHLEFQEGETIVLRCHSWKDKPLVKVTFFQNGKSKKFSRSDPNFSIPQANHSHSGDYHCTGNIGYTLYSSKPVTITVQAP
Protocol: as §1, §2

T1 sequence (P12314 16-292): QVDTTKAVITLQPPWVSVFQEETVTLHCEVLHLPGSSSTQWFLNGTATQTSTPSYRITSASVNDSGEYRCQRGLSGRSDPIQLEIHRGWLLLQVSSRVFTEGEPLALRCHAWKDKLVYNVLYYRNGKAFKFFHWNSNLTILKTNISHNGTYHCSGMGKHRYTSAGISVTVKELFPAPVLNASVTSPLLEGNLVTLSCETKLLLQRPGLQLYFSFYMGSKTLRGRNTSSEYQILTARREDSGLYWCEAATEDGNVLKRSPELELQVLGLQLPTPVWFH

B1: IL6R-BP131/IL6R-L (antibody, human IgG1, kappa, name in EU numbering)
heavy: QVQLQESGPGLVKPSETLSLTCAVSGHSISHDHAWSWVRQPPGEGLEWIGFISYSGITNYNPSLQGRVTISRDNSKNTLYLQMNSLRAEDTAVYYCARSLARTTAMDYWGEGTLVTVSSASTKGPSVFPLAPSSKSTSGGTAALGCLVKDYFPEPVTVSWNSGALTSGVHTFPAVLQSSGLYSLSSVVTVPSSSLGTQTYICNVNHKPSNTKVDKKVEPKSCDKTHTCPPCPAPDLLGDDSVFLFPPKPKDTLMISRTPEVTCVVVDVSHEDPEVKFNWYVDGVEVHNAKTKPREEQYNSTYRVVSVLTVLHQDWLNGKEYKCKVSNKALPKPIEKTISKAKGQPREPQVYTLPPSRDELTKNQVSLTCLVKGFYPSDIAVEWESNGQPENNYKTTPPVLDSDGSFFLYSKLTVDKSRWQQGNVFSCSVMHEALHNHYTQESLSLSP
light: not shown
relative binding activity [1]: 33
relative binding activity [2]: 253
relative binding activity [3]: 118

B2: IL6R-BP151/IL6R-L (antibody, human IgG1, kappa, name in EU numbering)
heavy: QVQLQESGPGLVKPSETLSLTCAVSGHSISHDHAWSWVRQPPGEGLEWIGFISYSGITNYNPSLQGRVTISRDNSKNTLYLQMNSLRAEDTAVYYCARSLARTTAMDYWGEGTLVTVSSASTKGPSVFPLAPSSKSTSGGTAALGCLVKDYFPEPVTVSWNSGALTSGVHTFPAVLQSSGLYSLSSVVTVPSSSLGTQTYICNVNHKPSNTKVDKKVEPKSCDKTHTCPPCPAPDYLGDDSVFLFPPKPKDTLMISRTPEVTCVVVDVSHEDPEVKFNWYVDGVEVHNAKTKPREEQYNSTYRVVSVLTVLHQDWLNGKEYKCKVSNAALPRPIEKTISKAKGQPREPQVYTLPPSRDELTKNQVSLTCLVKGFYPSDIAVEWESNGQPENNYKTTPPVLDSDGSFFLYSKLTVDKSRWQQGNVFSCSVMHEALHNHYTQESLSLSP
light: not shown
relative binding activity [1]: 39
relative binding activity [2]: 621
relative binding activity [3]: 221

B3: IL6R-BP181/IL6R-L (antibody, human IgG1, kappa, name in EU numbering)
heavy: QVQLQESGPGLVKPSETLSLTCAVSGHSISHDHAWSWVRQPPGEGLEWIGFISYSGITNYNPSLQGRVTISRDNSKNTLYLQMNSLRAEDTAVYYCARSLARTTAMDYWGEGTLVTVSSASTKGPSVFPLAPSSKSTSGGTAALGCLVKDYFPEPVTVSWNSGALTSGVHTFPAVLQSSGLYSLSSVVTVPSSSLGTQTYICNVNHKPSNTKVDKKVEPKSCDKTHTCPPCPAPDLLGGDSVFLFPPKPKDTLMISRTPEVTCVVVDVSHEDGEVKFNWYVDGVEVHNAKTKPREEQYNSTYRVVSVLTVLHQDWLNGKEYKCKVSNAALPKPIEKTISKAKGQPREPQVYTLPPSRDELTKNQVSLTCLVKGFYPSDIAVEWESNGQPENNYKTTPPVLDSDGSFFLYSKLTVDKSRWQQGNVFSCSVMHEALHNHYTQESLSLSP
light: not shown
relative binding activity [3]: 122

B4: IL6R-BP190/IL6R-L (antibody, human IgG1, kappa, name in EU numbering)
heavy: QVQLQESGPGLVKPSETLSLTCAVSGHSISHDHAWSWVRQPPGEGLEWIGFISYSGITNYNPSLQGRVTISRDNSKNTLYLQMNSLRAEDTAVYYCARSLARTTAMDYWGEGTLVTVSSASTKGPSVFPLAPSSKSTSGGTAALGCLVKDYFPEPVTVSWNSGALTSGVHTFPAVLQSSGLYSLSSVVTVPSSSLGTQTYICNVNHKPSNTKVDKKVEPKSCDKTHTCPPCPAPELLGDDSVFLFPPKPKDTLMISRTPEVTCVVVDVSDEDGEVKFNWYVDGVEVHNAKTKPREEQYNSTYRVVSVLTVLHQDWLNGKEYKCKVSNKALPKPIEKTISKAKGQPREPQVYTLPPSRDELTKNQVSLTCLVKGFYPSDIAVEWESNGQPENNYKTTPPVLDSDGSFFLYSKLTVDKSRWQQGNVFSCSVMHEALHNHYTQESLSLSP
light: not shown
relative binding activity [1]: 50
relative binding activity [2]: 224
relative binding activity [3]: 155

The remaining lines, values ahead:

relative binding activity [1]: 125
relative binding activity [2]: 145
relative binding activity [3]: 142
B5: IL6R-BP191/IL6R-L (antibody, human IgG1, kappa, name in EU numbering)
heavy: QVQLQESGPGLVKPSETLSLTCAVSGHSISHDHAWSWVRQPPGEGLEWIGFISYSGITNYNPSLQGRVTISRDNSKNTLYLQMNSLRAEDTAVYYCARSLARTTAMDYWGEGTLVTVSSASTKGPSVFPLAPSSKSTSGGTAALGCLVKDYFPEPVTVSWNSGALTSGVHTFPAVLQSSGLYSLSSVVTVPSSSLGTQTYICNVNHKPSNTKVDKKVEPKSCDKTHTCPPCPAPDLLGGDSVFLFPPKPKDTLMISRTPEVTCVVVDVSDEDGEVKFNWYVDGVEVHNAKTKPREEQYNSTYRVVSVLTVLHQDWLNGKEYKCKVSNAALPKPIEKTISKAKGQPREPQVYTLPPSRDELTKNQVSLTCLVKGFYPSDIAVEWESNGQPENNYKTTPPVLDSDGSFFLYSKLTVDKSRWQQGNVFSCSVMHEALHNHYTQESLSLSP
light: not shown

relative binding activity [1]: 43
relative binding activity [2]: 285
relative binding activity [4]: 185
B6: IL6R-BP202/IL6R-L (antibody, human IgG1, kappa, name in EU numbering)
heavy: QVQLQESGPGLVKPSETLSLTCAVSGHSISHDHAWSWVRQPPGEGLEWIGFISYSGITNYNPSLQGRVTISRDNSKNTLYLQMNSLRAEDTAVYYCARSLARTTAMDYWGEGTLVTVSSASTKGPSVFPLAPSSKSTSGGTAALGCLVKDYFPEPVTVSWNSGALTSGVHTFPAVLQSSGLYSLSSVVTVPSSSLGTQTYICNVNHKPSNTKVDKKVEPKSCDKTHTCPPCPAPELLGDDSVFLFPPKPKDTLMISRTPEVTCVVVDVSHEDGEVKFNWYVDGVEVHNAKTKPREEQYNSTYRVVSVLTVLHQDWLNGKEYKCKVSNAALPRPIEKTISKAKGQPREPQVYTLPPSRDELTKNQVSLTCLVKGFYPSDIAVEWESNGQPENNYKTTPPVLDSDGSFFLYSKLTVDKSRWQQGNVFSCSVMHEALHNHYTQESLSLSP
light: not shown

relative binding activity [1]: 110
relative binding activity [2]: 137
relative binding activity [4]: 165
B7: IL6R-BP204/IL6R-L (antibody, human IgG1, kappa, name in EU numbering)
heavy: QVQLQESGPGLVKPSETLSLTCAVSGHSISHDHAWSWVRQPPGEGLEWIGFISYSGITNYNPSLQGRVTISRDNSKNTLYLQMNSLRAEDTAVYYCARSLARTTAMDYWGEGTLVTVSSASTKGPSVFPLAPSSKSTSGGTAALGCLVKDYFPEPVTVSWNSGALTSGVHTFPAVLQSSGLYSLSSVVTVPSSSLGTQTYICNVNHKPSNTKVDKKVEPKSCDKTHTCPPCPAPDLLGGDSVFLFPPKPKDTLMISRTPEVTCVVVDVSHEDGEVKFNWYVDGVEVHNAKTKPREEQYNSTYRVVSVLTVLHQDWLNGKEYKCKVSNAALPRPIEKTISKAKGQPREPQVYTLPPSRDELTKNQVSLTCLVKGFYPSDIAVEWESNGQPENNYKTTPPVLDSDGSFFLYSKLTVDKSRWQQGNVFSCSVMHEALHNHYTQESLSLSP
light: not shown

relative binding activity [1]: 97
relative binding activity [2]: 108
relative binding activity [4]: 167
B8: IL6R-BP205/IL6R-L (antibody, human IgG1, kappa, name in EU numbering)
heavy: QVQLQESGPGLVKPSETLSLTCAVSGHSISHDHAWSWVRQPPGEGLEWIGFISYSGITNYNPSLQGRVTISRDNSKNTLYLQMNSLRAEDTAVYYCARSLARTTAMDYWGEGTLVTVSSASTKGPSVFPLAPSSKSTSGGTAALGCLVKDYFPEPVTVSWNSGALTSGVHTFPAVLQSSGLYSLSSVVTVPSSSLGTQTYICNVNHKPSNTKVDKKVEPKSCDKTHTCPPCPAPDLLGGDSVFLFPPKPKDTLMISRTPEVTCVVVDVSHEDGEVKFNWYVDGVEVHNAKTKPREEQDNSTYRVVSVLTVLHQDWLNGKEYKCKVSNKALPRPIEKTISKAKGQPREPQVYTLPPSRDELTKNQVSLTCLVKGFYPSDIAVEWESNGQPENNYKTTPPVLDSDGSFFLYSKLTVDKSRWQQGNVFSCSVMHEALHNHYTQESLSLSP
light: not shown

relative binding activity [1]: 57
relative binding activity [2]: 279
relative binding activity [4]: 187
B9: IL6R-BP210/IL6R-L (antibody, human IgG1, kappa, name in EU numbering)
heavy: QVQLQESGPGLVKPSETLSLTCAVSGHSISHDHAWSWVRQPPGEGLEWIGFISYSGITNYNPSLQGRVTISRDNSKNTLYLQMNSLRAEDTAVYYCARSLARTTAMDYWGEGTLVTVSSASTKGPSVFPLAPSSKSTSGGTAALGCLVKDYFPEPVTVSWNSGALTSGVHTFPAVLQSSGLYSLSSVVTVPSSSLGTQTYICNVNHKPSNTKVDKKVEPKSCDKTHTCPPCPAPELLGDDSVFLFPPKPKDTLMISRTPEVTCVVVDVSDEDGEVKFNWYVDGVEVHNAKTKPREEQYNSTYRVVSVLTVLHQDWLNGKEYKCKVSNKALPRPIEKTISKAKGQPREPQVYTLPPSRDELTKNQVSLTCLVKGFYPSDIAVEWESNGQPENNYKTTPPVLDSDGSFFLYSKLTVDKSRWQQGNVFSCSVMHEALHNHYTQESLSLSP
light: not shown

relative binding activity [1]: 117
relative binding activity [2]: 135
relative binding activity [4]: 173
B10: IL6R-BP212/IL6R-L (antibody, human IgG1, kappa, name in EU numbering)
heavy: QVQLQESGPGLVKPSETLSLTCAVSGHSISHDHAWSWVRQPPGEGLEWIGFISYSGITNYNPSLQGRVTISRDNSKNTLYLQMNSLRAEDTAVYYCARSLARTTAMDYWGEGTLVTVSSASTKGPSVFPLAPSSKSTSGGTAALGCLVKDYFPEPVTVSWNSGALTSGVHTFPAVLQSSGLYSLSSVVTVPSSSLGTQTYICNVNHKPSNTKVDKKVEPKSCDKTHTCPPCPAPDLLGGDSVFLFPPKPKDTLMISRTPEVTCVVVDVSDEDGEVKFNWYVDGVEVHNAKTKPREEQDNSTYRVVSVLTVLHQDWLNGKEYKCKVSNKALPRPIEKTISKAKGQPREPQVYTLPPSRDELTKNQVSLTCLVKGFYPSDIAVEWESNGQPENNYKTTPPVLDSDGSFFLYSKLTVDKSRWQQGNVFSCSVMHEALHNHYTQESLSLSP
light: not shown
